Values quoted from earlier work, collected in PMC4194041.

Target: AP180 fragment with two D(L/I)(L/F) motifs (UniProt Q61548)
Assay: NMR

UniProt Q61548, sequence (Q61548 623-680): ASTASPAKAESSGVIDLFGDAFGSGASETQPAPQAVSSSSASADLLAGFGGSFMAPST

- Kd: 250 µM
Substance: Clathrin heavy chain TD (from UniProt P11442)
